Assay results: patent US20190248902A1 (published 2019)

T1: human ASGR-1 mutant construct H203 (human, UniProt P07306 1-291)
T1 construct: Arg/Glu scanning: non-arginine residues were changed to arginine; Transiently expressed on CHO-S cells
T1 sequence: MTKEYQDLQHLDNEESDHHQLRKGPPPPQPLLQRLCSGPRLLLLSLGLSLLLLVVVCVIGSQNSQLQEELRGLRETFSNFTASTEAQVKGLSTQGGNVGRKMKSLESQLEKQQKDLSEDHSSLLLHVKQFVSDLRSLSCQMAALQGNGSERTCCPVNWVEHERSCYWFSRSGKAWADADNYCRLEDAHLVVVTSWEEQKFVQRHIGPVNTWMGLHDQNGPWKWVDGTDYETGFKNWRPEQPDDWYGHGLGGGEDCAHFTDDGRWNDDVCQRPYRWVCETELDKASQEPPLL

T2: human ASGR-1 (wild type) (human, UniProt P07306 1-291)
T2 construct: also called wt ASGR1; huASGR-1
T2 sequence: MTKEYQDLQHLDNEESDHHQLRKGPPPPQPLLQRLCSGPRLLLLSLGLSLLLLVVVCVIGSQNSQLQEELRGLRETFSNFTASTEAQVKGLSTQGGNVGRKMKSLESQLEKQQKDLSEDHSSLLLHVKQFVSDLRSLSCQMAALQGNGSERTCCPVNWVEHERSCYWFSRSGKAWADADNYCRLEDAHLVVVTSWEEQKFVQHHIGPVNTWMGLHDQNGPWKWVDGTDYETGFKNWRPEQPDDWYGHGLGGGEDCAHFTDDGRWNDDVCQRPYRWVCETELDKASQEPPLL


Key:
[1] = molecular target: T1, human ASGR-1 mutant construct H203; test: FACS ratio: 65C12 geomean / this mAb geomean
Method in brief: (§1)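 CHO-S cells transiently expressing wild-type or point-mutant hASGR-1 were stained with antibody at 5 ug/ml for 1 h at 4 °C. Bound antibody was detected by Fc-specific Alexa 647 secondary plus 7-AAD and read by flow cytometry. Ratio is 65C12 geomean divided by test mAb geomean, normalizing for expression.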

[2] = molecular target: T2, human ASGR-1 (wild type); test: FACS ratio: 65C12 geomean / this mAb geomean
Method in brief: as §1

[3] = molecular target: T2, human ASGR-1 (wild type); test: FACS, transfected CHO-S cells, mAb 5 ug/ml
Method in brief: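 Transiently transfected CHO-S cells expressing wild-type or mutant hASGR-1 incubated with antibody at 5 ug/ml, 1 h at 4 °C; bound antibody detected by Alexa Fluor 647 anti-Fc plus 7-AAD, by flow cytometry. Binding normalized to expression using an unaffected antibody (65C12), then to wild type; hits defined as >3× IQR above third quartile.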

[4] = molecular target: T2, human ASGR-1 (wild type); test: flow cytometry, CHO-S:huASGR-1 cells, 11-point titration
Method in brief: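 CHO-S cells stably expressing human ASGR-1 were multiplexed with dye-labelled parental cells and mouse ASGR-1 cells (30K cells/well). Antibodies were run as an 11-point 1:2 series from 100 nM for 30 min at 4°C, with CaCl2 (1 mM) washes, anti-human IgG-APC detection and PI live gating. EC50 from four-parameter fits of duplicate median signals.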

| Binder | Expression Normalization to mAb 65C12 [1] | Expression Normalization to mAb 65C12 [2] | FACS Binding Geomean [3] | EC50 [4] [nM] |
| --- | --- | --- | --- | --- |
| 75G3 (antibody, V domains shown, mAb) VH: QVQLQQWGAGLLKPSETLSLTCAVYGGSLSGSYWSWIRQPPGKGLEWIGEINLSGSTNYNPSLKSRVTISVDTSKSQFSLTLRSVTAADTAVYYCARDYGGLDYWGQGTLVTVSS VL: EIVLTQSPGTLSLSPGERATLSCRARQNVDSSYLAWYQQKPGQAPRLLIYGASSRATGIPDRFSGSGSGTDFTLTISRLEPEDFAVFYCQQYERSPWTFGQGTKVEIK | 1.78 | 1.51 | 37200 | 1 |
| 190F8 (antibody, V domains shown, mAb) VH: QVQLVESGGGVVQPGRSLRLSCAASGFTFSTYGMHWVRQAPGKGLEWVAVIWYDGSNKNYADSVKGRFTISRDNSKNTLYLQMNSLRAEDTAVYYCARDQGVGYDGLDVWGQGTTVTVSS VL: DIQMTQSPSSLSASVGDRVTITCRTSQGIGNYLAWFQQKPGKAPKSLLYKASSLQSGVPSKFSGSGSGTDFTLTISSLQPEDFATYYCQQYMTYPLTFGGGTKVEIK | 1.71 | 1.54 | 36500 | 9 |
| 197G3 (antibody, V domains shown, mAb) VH: QVQLVESGGGVVQPGRSLRLSCVASGFTFSSHGMHWVRQAPGKGLEWVAVIWYDGSNKNYADSVKGRFTISRDNSKNTLYLQMNSLRAEDTAVYYCARDPSVGYDGMDVWGQGTTVTVSS VL: DIQMTQSPSSLSASVGDRVTITCRASQGIGNHLAWFQQKPGKAPKSLIYAASSLQSGVPSKFSGSRSGTDFSLTISSLQPEDFATYYCQQYSNYPVTFGPGTKVDIK | 7.35 | 4.21 | 13300 | 0.25 |
| 194C1 (antibody, V domains shown, mAb) VH: QVQLVESGGGVVQPGRSLRLSCAASGFTFSSYGMHWVRQAPGKGLEWVAVIWYDGSNEHYADSVKGRFTISRDNSKNTLYLQMNSLRAEDTAVYYCARNRGVGYYGLDVWGQGTTVTVSS VL: DIQMTQSPSSLSASVGDRVTITCRASQGISNYLAWFQQKPGKAPKSLIYAASSLQSGVPSKFSGSGSGTDFTLTISSLQPEDFATYYCLHYLTYPLTFGGGTKVEIK | 2.33 | 2.69 | 20900 | 0.11 |
| 198G3 (antibody, V domains shown, mAb) VH: QVQLVESGGGVVQPGRSLKLSCAASGFTFSTYGMHWVRQAPGKGLEWVAVIWYDGTNKNYADSVKGRFTISRDNSKNTLCLQMNSLRAEDTAVYYCARDQGVGYDGLDVWGQGTTVTVSS VL: DIQMAQSPSSLSASVGDRVTITCRTSQGIGKYLAWFQQKPGKAPKSLLYKASSLQGGVPSKFSGSGSGTDFTLTISSLQPEDFATYYCQQYMTYPLTFGGGTKVEIK | 1.96 | 2.61 | 21500 | 0.21 |
| 191G10 (antibody, V domains shown, mAb) VH: QVQLVESGGGVVQPGRSLRLSCAASGFTFSSYGMHWVRQAPGKGLEWVAVIWYDGSNKNYADSVKGRFTISRDNSKNTLYLQMNSLRAEDTAVYYCARDQGVGYDGLDVWGQGTTVTVSS VL: DIQMTQSPSSLSASVGDRVTITCRTSQGIGKYLAWFQQKPGKAPKSLLYKVSSLQSGVPSKFSGSGSGTDFTLTISSLQPEDFATYYCQQYMTYPLTFGGGTKVEIK | 1.51 | 1.66 | 33800 | 0.31 |
| 191G1 (antibody, V domains shown, mAb) VH: QVQLVESGGGVVQPGRSLRLSCAASGFTFSSYGMHWVRQAPGKGLEWVAVIWYDGSNEHYADSVKGRFTISRDNSKNTLYLQMNSLRAEDTAVYYCARDRGVGYYGLDVWGQGTTVTVSS VL: DIQMTQSPSSLSASVGDRVTITCRASQGISNYLAWFQQKPGKAPKSLIYAASSLQSGVPSKFSGSGSGTDFTLTISSLQPEDFATYYCQHYLTYPLTFGGGTKVEIK | 2.37 | 2.22 | 25300 | 0.16 |
| 218G4 (antibody, V domains shown, mAb) VH: QVQLVESGGGVVQPGRSLRLSCAASGFTFSSYGLHWVRQAPGKGLEWVAVIWYDGSNKYYADSVKGRFTISRDNSKNTLYLQMNSLRVEDTAVYYCANWYYYYYGMDVWGQGTTVTVSS VL: QSVLTQPPSVSAAPGQKVTISCSGSSSNIGNNYVSWYQQLPGTAPKLLLYDSNKRPSGIPARFSGSKSGTSATLGITGLQTGDEADYYCGTWDSSLNTVVFGGGTKLTVL | 3.25 | 4.59 | 12200 | 2.2 |
| 176H4 (antibody, V domains shown, mAb) VH: QVQLVESGGGVVQPGRSLRLSCAASGFTFSSYGMHWVRQAPGKGLEWVAIIWYDGSYKYYADSVKGRFTISRDNSKNTLYLQMSSLRAEDTAVYYCARDAHDFWSGYFAYWGQGALVTVSS VL: DIVMTQTPLSLSVTPGQPASISCKSSQSLLHGDGKTYLYWYLQKPGQPPQLLIYEVSNRFSGVPDRFSGSGSGTDFTLKISRVEAEDVGIYYCMQSIQIPWTFGQGTRVEIK | 2.52 | 1.67 | 33500 | 1 |
| 194A4 (antibody, V domains shown, mAb) VH: QVQLVQSGTEVKKPGASLKVSCKASGYTFTVYYLNWVRQAPGQGLEWMGWINPNSGGTNYAQKFQGRVTMTRDTSISTAYMELSRLRSDDTAVYYCARGYDILTGWGQGTLVTVSS VL: EIVLTQSPGTLSLSPGERATLSCRASRGVSNIYLAWYQQKPGQAPRLLIYGASNRATGIPDRFSGSGSGTDFTLTISRLEPEDFAVYYCQHNDYSMFTFGPGTKVDIK | 2.12 | 3.44 | 16300 | 25 |
| 193E7 (antibody, V domains shown, mAb) VH: QVQLQQWGAGLLKPSETLSLTCAVYGGSFSGYFWTWIRQPPGKGLEWIGEINHSGSTNYNPSLKSRVTISVDTSKNQFSLKLSSVTAADTAVYYCARDYGADYWGQGTLVAVSA VL: DIQMTQSPSSLSASVGDRVTITCRASQGIRNDLGWYQQKPGKAPKRLIYSASSLQRGVPSRFSGSGSGTEFTLTISSLQPEDFATYYCLQHKRYPLTFGGGTKVEIK | 1.87 | 1.58 | 35500 | 0.13 |
| 194C10 (antibody, V domains shown, mAb) VH: QVQLQQWGAGLLKPSETLSLTCAVSGGSFRYYYWSWIRQPPGKGLEWFGEINHSGSTNYNPSLKSRVTISIDTSKNQFSLKLRSVTAADTAVYYCARDYGAFDIWGQGTMVTVSS VL: EIVLTQSPGTLSLSPGERATLSCRASPSVNSGYLAWYQQKPGQTPRLLIFGASSRATGIPDRFSASGSGADFTLTISRLEPEDFAVYFCQQYESSPWTFGQGTKVEIK | 1.95 | 1.99 | 28100 | 0.56 |
